The target in the experiment is pertussis toxin (Bordetella pertussis) (UniProt P04977). The experiment in a line: ELISA, plate coated with pertussis toxin, antibody titrated, detection with goat anti-human kappa constant domain-HRP [panel C]. A general note: ELISA stands for enzyme-linked immunosorbent assay.

In the case of hu1B7-YTE extended half-life antibody, the EC50 (read off the curve) (in general, the concentration needed to bring the measured effect to its halfway point) was 0.04 µg/mL.

The values above are taken from US20210332112A1.
